Source: PMC9433092, “Closely related type II-C Cas9 orthologs recognize diverse PAMs”

T1: Nme2-SmuCas9 (synthetic)
T1 chain: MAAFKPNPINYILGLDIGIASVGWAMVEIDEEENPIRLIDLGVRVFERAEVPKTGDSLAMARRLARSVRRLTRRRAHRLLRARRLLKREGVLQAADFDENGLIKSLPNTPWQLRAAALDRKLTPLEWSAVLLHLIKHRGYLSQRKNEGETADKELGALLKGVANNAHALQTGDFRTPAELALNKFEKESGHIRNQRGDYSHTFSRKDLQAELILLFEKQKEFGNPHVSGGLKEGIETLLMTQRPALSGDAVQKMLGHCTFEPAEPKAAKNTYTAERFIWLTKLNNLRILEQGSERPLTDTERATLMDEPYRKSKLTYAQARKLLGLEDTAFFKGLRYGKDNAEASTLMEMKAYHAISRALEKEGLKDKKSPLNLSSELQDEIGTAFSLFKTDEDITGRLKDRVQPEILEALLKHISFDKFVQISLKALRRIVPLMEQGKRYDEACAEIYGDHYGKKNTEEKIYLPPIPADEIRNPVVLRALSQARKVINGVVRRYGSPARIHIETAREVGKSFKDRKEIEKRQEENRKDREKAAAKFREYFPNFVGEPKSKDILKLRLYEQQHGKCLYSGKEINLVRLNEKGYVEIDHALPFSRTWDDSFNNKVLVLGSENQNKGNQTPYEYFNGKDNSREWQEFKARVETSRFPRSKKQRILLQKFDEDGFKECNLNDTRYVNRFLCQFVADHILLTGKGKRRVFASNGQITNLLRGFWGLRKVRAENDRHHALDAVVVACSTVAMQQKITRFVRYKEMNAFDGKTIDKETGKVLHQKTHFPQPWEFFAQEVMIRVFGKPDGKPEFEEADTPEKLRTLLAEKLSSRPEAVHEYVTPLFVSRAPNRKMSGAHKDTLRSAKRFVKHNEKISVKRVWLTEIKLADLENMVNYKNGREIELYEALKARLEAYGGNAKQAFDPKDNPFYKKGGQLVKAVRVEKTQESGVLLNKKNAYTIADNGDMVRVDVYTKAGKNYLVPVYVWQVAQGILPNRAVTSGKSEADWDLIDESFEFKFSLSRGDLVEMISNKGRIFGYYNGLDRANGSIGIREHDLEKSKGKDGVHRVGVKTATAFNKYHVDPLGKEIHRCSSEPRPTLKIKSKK

T2: Nsp2-SmuCas9 (synthetic)
T2 chain: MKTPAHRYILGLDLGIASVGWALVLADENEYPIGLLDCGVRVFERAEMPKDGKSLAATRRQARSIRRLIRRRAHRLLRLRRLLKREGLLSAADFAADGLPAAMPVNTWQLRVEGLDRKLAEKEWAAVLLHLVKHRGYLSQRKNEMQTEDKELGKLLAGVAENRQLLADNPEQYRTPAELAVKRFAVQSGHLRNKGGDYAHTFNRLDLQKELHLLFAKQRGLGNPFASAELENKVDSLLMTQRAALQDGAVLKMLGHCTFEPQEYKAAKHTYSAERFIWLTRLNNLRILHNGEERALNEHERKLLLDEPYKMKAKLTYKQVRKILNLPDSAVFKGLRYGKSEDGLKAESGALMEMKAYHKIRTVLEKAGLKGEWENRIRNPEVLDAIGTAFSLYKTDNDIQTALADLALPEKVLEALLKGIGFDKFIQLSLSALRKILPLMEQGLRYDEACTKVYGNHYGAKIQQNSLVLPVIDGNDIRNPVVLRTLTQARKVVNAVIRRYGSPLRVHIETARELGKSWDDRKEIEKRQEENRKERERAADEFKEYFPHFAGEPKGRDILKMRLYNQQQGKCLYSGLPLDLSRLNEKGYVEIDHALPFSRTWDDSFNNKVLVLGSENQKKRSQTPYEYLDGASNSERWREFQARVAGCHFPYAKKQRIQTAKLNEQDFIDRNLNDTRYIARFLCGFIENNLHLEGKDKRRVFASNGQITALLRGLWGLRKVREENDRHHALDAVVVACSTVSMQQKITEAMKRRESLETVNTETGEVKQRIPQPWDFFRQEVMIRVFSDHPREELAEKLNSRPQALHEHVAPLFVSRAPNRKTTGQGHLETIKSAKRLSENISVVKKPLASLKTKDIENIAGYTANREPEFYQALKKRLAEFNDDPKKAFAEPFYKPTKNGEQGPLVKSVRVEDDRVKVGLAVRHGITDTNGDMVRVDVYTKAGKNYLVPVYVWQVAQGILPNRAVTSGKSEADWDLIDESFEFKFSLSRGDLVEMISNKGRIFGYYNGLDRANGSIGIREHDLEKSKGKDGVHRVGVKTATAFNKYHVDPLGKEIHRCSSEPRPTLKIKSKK

T3: NarCas9 (Neisseria arctica, UniProt A0A0J0YQ19)
T3 sequence: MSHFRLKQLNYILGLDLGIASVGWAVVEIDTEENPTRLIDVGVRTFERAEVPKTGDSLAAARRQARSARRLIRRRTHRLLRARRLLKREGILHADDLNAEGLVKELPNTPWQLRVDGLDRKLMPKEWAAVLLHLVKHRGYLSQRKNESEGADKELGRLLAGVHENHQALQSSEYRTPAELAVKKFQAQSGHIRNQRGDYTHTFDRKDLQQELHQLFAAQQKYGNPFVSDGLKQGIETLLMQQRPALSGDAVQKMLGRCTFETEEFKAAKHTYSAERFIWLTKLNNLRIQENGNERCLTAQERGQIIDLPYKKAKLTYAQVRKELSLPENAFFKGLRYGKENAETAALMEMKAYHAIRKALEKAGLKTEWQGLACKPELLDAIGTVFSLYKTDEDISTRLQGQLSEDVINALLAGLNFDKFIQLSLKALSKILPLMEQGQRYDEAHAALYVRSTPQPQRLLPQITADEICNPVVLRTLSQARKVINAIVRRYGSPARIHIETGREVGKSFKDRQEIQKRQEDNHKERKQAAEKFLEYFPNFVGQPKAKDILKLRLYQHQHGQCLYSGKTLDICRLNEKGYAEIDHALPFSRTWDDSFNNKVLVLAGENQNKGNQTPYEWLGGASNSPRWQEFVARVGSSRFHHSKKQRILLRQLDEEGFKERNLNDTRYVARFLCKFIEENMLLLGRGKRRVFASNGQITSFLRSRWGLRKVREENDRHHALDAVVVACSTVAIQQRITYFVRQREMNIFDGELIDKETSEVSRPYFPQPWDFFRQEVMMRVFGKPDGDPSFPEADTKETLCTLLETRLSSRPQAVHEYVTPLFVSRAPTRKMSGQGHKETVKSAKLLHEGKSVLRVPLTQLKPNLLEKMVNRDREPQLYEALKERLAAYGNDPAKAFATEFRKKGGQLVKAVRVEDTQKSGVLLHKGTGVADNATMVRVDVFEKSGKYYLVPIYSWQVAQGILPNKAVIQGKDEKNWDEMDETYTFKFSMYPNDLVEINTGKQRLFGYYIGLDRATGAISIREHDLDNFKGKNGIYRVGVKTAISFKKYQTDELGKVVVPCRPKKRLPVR

B1: AAVS1 TS5 (mixed)
RNA: GGUCUGAGGGUGGAGGGACUGGGUUGUAGCUCCCUUUCUCAUUUCGGAAACGAAAUGAGAACCGUUGCUACAAUAAGGCCGUCUGAAAAGAUGUGCCGCAACGCUCUGCCCCUUAAAGCUUCUGCUUUAAGGGGCAUCGUUUAUUUUUUU
DNA 1: GGTCTGAGGGTGGAGGGACTGGGGGCCTGG
DNA 2: CCAGGCCCCCAGTCCCTCCACCCTCAGACC
B2: EMX1 TS13 (mixed)
RNA: GGUGGUAGAGGGAGCAGUAUGAGUUGUAGCUCCCUUUCUCAUUUCGGAAACGAAAUGAGAACCGUUGCUACAAUAAGGCCGUCUGAAAAGAUGUGCCGCAACGCUCUGCCCCUUAAAGCUUCUGCUUUAAGGGGCAUCGUUUAUUUUUUU
DNA 1: GGTGGTAGAGGGAGCAGTATGAGAGTCTGG
DNA 2: CCAGACTCTCATACTGCTCCCTCTACCACC

Tests used:
Test in all cases: HEK293T cells
Conditions in all cases: tags: NLS and HA tags, kept
Nme2-SmuCas9 = target: T1, Nme2-SmuCas9
Nsp2-SmuCas9 = target: T2, Nsp2-SmuCas9
NarCas9 = target: T3, NarCas9

Row | Binder | indel frequency (Nme2-SmuCas9) [% indels] | indel frequency (Nsp2-SmuCas9) [% indels] | indel frequency (NarCas9) [% indels]
1 | B1 | 14.5 | 17.8 | 13.2
2 | B2 | 12.2 | 35.6 | 18.4
